# Source: the DeepSol protein solubility set
# Assay: soluble on expression in E. coli; label from the status in PepcDB or PDB records
row,Sequence,soluble on expression in E. coli
1,MGSDKIHHHHHHMASKEEQYAAFYQFLETLDCYLTTTNALENEVAQFKENPHREIAGFMLASSETIDVPKGFIRMLYCLEQDGYAYLDQQRCSFSAGQVMIVNEATSVSYQGQGMSMIIFYFKKHYFLDTLLNQLAEEPVMYRFFTEIASSEFENIPRYFVFASQPNSDVHVYSLLLLKQIVKMAYFNNKVTKAAFVLLVVELGQLPREALKMQDNYLSNHQRVEVILAYIEQQIAHVTLAEVAAKFHFHPNYLSNFLKEKTNKTFTEIVLAYRIQLAKNYLKQTDLSIQTIVERIGYQDKAFFYKRFKEEMGMTPKQYRQKEGMADVRRSL,not soluble
2,MSGKRALITGIRGQDGAYLAKLLLEKGYEVYGADRRSGEFASWRLKELGIENDVKIIHMDLLEFSNIIRTIEKVQPDEVYNLAAQSFVGVSFEQPILTAEVDAIGVLRILEALRTVKPDTKFYQASTSEMFGKVQEIPQTEKTPFYPRSPYAVAKLFGHWITVNYREAYNMFACSGILFNHESPLRGIEFVTRKITYSLARIKYGLQDKLVLGNLNAKRDWGYAPEYVEAMWLMMQQPEPDDYVIATGETHTVREFVEKAAKIAGFDIEWVGEGINEKGIDRNTGKVIVEVSEEFFRPAEVDILVGNPEKAMKKLGWKPRTTFDELVEIMMEADLKRVRDREVSV,soluble
3,AIATANLAATDDWGELLDVLDPGDPTGSRVIARYDRLRVHREGLLHRSVHVCVVRSVPDWPAQVHGLRNTNYKLLLQRRSESKAIAPGCWDLSCAEHLRAGESFEGAAVRGLQEELGLALAPDQQTTPIHALDDGEPALQLYDYPSVGLTDYEWNRIYVVFVTDQADEALAKLKLDSAEVAQVRWITRESLQMELAENPSHFTPWFRDQARKHLLPSAYN,soluble
4,MMINVHSYESMGTFDGPGLRLVVFLQGCNFRCLYCANPDTIAGKGGTPTPPEEIVRMAMSQRPFFGKRGGITFSGGEPTFQAKALVPLVRELKERGIHVCLDSNGGLWNEDVEELFKLTDLVLLDIKEFNPNRHQTLTGRSNEQTIRTAAWLEEQGKPFWLRYVLVPGYSDFEEDIRALGEALGKYKMIQRVEILPYHTLGVHKYEAMGQEYKMKGVKENTPEQLEKAAEVFKEYFTTVVVNLEHHHHHH,soluble
5,MPSRAEDYEVLYTIGTGSYGRCQKIRRKSDGKILVWKELDYGSMTEAEKQMLVSEVNLLRELKHPNIVRYYDRIIDRTNTTLYIVMEYCEGGDLASVITKGTKERQYLDEEFVLRVMTQLTLALKECHRRSDGGHTVLHRDLKPANVFLDGKQNVKLGDFGLARILNHDTSFAKTFVGTPYYMSPEQMNRMSYNEKSDIWSLGCLLYELCALMPPFTAFSQKELAGKIREGKFRRIPYRYSDELNEIITRMLNLKDYHRPSVEEILENPLIADLVADEQRRNLERRGRQLGEPEKSQDSSPVLSELKLKEIQLQERERALKAREKRLEQKEQELCVRERLAEDKLARAENLLKSYSLLKERKFLSLASNPELLNLPSSVIKKKVHFSGESKENIMRSENSESQLTSKSKCKDLKKRLHAAQLRAQALSDIEKNYQLKSRQILGMR,soluble
6,DIGCYTLGINKPLEGVDITICMGASVGVSNGLAHVLNNKIIATIGDSTFIHAGIPPLINAVYNHADFVLVILDNSTTGMTGHQPHPGTGFRGCGEAGKAVRIEDIVRGCGVEFVEVVNPYNVRKMVDVLRRALNHDGVAVVIARQPCAILWSRARRREGKIVTYKVTEDC,not soluble
7,AATTVNGGTVHFKGEVVNAACAVDAGSVDQTVQLGQVRTASLAQEGATSSAVGFNIQLNDCDTNVASKAAVAFLGTAIDAGHTNVLALQSSAAGSATNVGVQILDRTGAALTLDGATFSSETTLNNGTNTIPFQARYFATGAATPGAANADATFKVQYQGGGGGGAATTVNGGTVHFKGEVVNA,soluble
8,MGSDKIHHHHHHMEVDDVWDDTELIKMYDESLQEISKNETSAKITSRKFKGEDGKMYTWKVGGKCMAPYEENGEVTDYPATIDTIGGADNLEVGVTFIYYGGQAVVQMKDLWLNEEAIADAVKAENDLQKTKKTSTVNSVAHSNSKSTSSAPNTSMPFPSFAPPVPPNIIAMAPVNQKEAMNSMLMSWYMSGYHTGYYQALADQKNVQN,not soluble
9,MPDHARMPRNLSSNKIAKTIAGEDLDEEEVLEMDAGQSAREEGRFVFECAWEVANKVGGIYTVLRSKAQISTEELGDQYCMFGPMKDGKWRLEVDPIEPENRTIRAAMKRFQADGFRCMYGRWLIEGYPKVILFDLGSGAVKMNEWKHELFEQCKIGIPHEDIESNDAVILGFMVALFLKHFRESVTSYTPLVVAHFHEWQAGVGLLMTRLWKLDIATVYTTHATLLGRHLCAGGADLYNNLDSFDLDAEAGKRKIYHQYCLERAACQTAHIFTTVSEITGLEAEHFLCRKPDVLTPNGLNVVKFAALHEFQNLHAQNKEKINQFIRGHFHGHLDFDLDKTLYFFTAGRYEFSNKGGDMFIESLARLNHYLKTTSDPRHMGVTVVAFLIYPAPANSFNVESLKGQAVTKQLKEAVDRIKEKVGQRIFDICLQGHLPEPEELMSPADNILLKRCIMSLHNSSLPPICTHNMIRADDPVLESLRRTSLFNKPEDRVKVVFHPEFLSSVSPLIGLDYEDFVRGCHLGVFPSYYEPWGYTPAECTVMGIPSVSTNLSGFGCFMQEHVEDHEQKGIYVIDRRHKAAEESVQELAQVMYDFCGQSRRQRIILRNSNEGLSALLDWQNLGVFYRDCRRLALERLHPDVDKIMRDNEGKVPSAATSRRPSIHSSDGEDDE,not soluble
10,GDFSWNSSLTYTMNRNKVKRLASGATNPITGEIIDMPELRMAVLGADGYGPRVILREGGTMGDLYVDKGLRTDGNGNIWVDSQTGKVGVQDYAEPKKIGTMNPDFNMGFSNTFSYKGINLGVVLTARVGGLCVSNTQGILDYYGVSKATADARDAGGVWINNGFVDAKSYYQTIGGSTGGLGQYYTYSATNIRLSELNLSYTLPRKWFNNKVGITAGIVGKNLWMIYCKAPFDPEMTPSTTSNFYQGVDYFMQPSTRNIGFNVKFQF,not soluble
11,MTEQTSPESLTDGAHSKTDSAWPLACNLEPRLVSRGRWQTTQWMLHGFSLTPEAQSQYVATLHLYRDERTDYRFNLSSQAPKLFLVAEDPIEDQPLKVVQLTASQAVASRYMDSDYLVLSADMPLPVQALMEAYIGRHGELLEIRRKKREGAGRSCGN,not soluble
12,HRIPAYTLTDQNGDAFKSTAYDSSFKVYDFVFTRCGSICPEMTTQMIRVQEAFKHDKDVVLISLTVDPEHDSSEVLQRYAKQYNAIPGKWYFLTGEKDTIYTLGQRQFFLTAKQNEEDLTDFLHSERIVLVDKNGWIRGYYTGTNEKDVDRLITELKVLQKIERDAKRK,not soluble
13,TTAIASDRLKKRFDRWDFDGNGALERADFEKEAQHIAEAFGKDAGAAEVQTLKNAFGGLFDYLAKEAGVGSDGSLTEEQFIRVTENLIFEQGEASFNRVLGPVVKGIVGMCDKNADGQINADEFAAWLTALGMSKAEAAEAFNQVDTNGNGELSLDELLTAVRDFHFGRLDVELLG,soluble
14,SLNDNFKKQPHHLIYEELLQQGITLGITTRGDGLSDYPKNAFNMARYIDDRPYNITQHQLQLAEEIAFDRKNWVFPIQTHENKVACITKDDIGTNIDTLTDALHGIDAMYTYDSNVLLTMCYADCVPVYFYSTKHHFIALAHAGWRGTYTEIVKEVLKHVNFDLKDLHVVIGPSTSSSYEINDDIKNKFETLPIDSANYIETRGRDRHGIDLKKANAALLIYYGVPKENIYTTAYATSEHLELFFSYRLEKGQTGRMLAFIGQQ,soluble
15,MEHEGLLVAEREIEVNNYDIDAMGIVSNIVYIRWFEDLRTIFINEYMTFSEMMKEHISPILMKTEIEYKVPITIHDKPVGRCWFVKAGRMKWVFKFEITSGDKVHCIGQQTGGFLDLERQRITKMPLEHHHHHH,not soluble
16,MVNVAVNGYGTIGKRVADAIIKQPDMKLVGVAKTSPNYEAFIAHRRGIRIYVPQQSIKKFEESGIPVAGTVEDLIKTSDIVVDTTPNGVGAQYKPIYLQLQRNAIFQGGEKAEVADISFSALCNYNEALGKKYIRVVSCNTTALLRTICTVNKVSKVEKVRATIVRRAADQKEVKKGPINSLVPDPATVPSHHAKDVNSVIRNLDIATMAVIAPTTLMHMHFINITLKDKVEKKDILSVLENTPRIVLISSKYDAEATAELVEVARDLKRDRNDIPEVMIFSDSIYVKDDEVMLMYAVHQESIVVPENIDAIRASMKLMSAEDSMRITNESLGILKGYLI,soluble
17,MNELTGADFKSATADDNKKLFIETYGCQMNVADSEVIASVMQMAGYSVAETLEEADAVFMNTCSIRDNAEQKILNRLEFFHSLKKKKKALIVGVLGCMAERVKDDLITNHHVDLVVGPDAYLTLPELIAAVEAGEKAINVDLSTTETYRDVIPSRICGNHISGFVSIMRGCNNFCTYCIVPYTRGRERSRDVESILNEVADLVAKGYKEVTLLGQNVNSYRFEKPTGEVVTFPMLLRMVAEAAPGVRIRFTTSHPKDMSDETLEVIAQVPNVCKHIHLPVQSGSSRILKLMNRKYTREWYLDRVAAIKRIIPDCGLTTDIFSGFHSETEEDHQLSLSLMEECGYDAAFMFKYSERPGTYASKHLEDNVPEDVKVRRLNEIIALQNRLSAESNQRCIGKTYEVLVEGVSKRSRDQLFGRTEQNRVVVFDRGTHRIGDFVNVRVTEASSATLKGEEVLEHHHHHH,soluble
18,MKKLTLREQQLVCLNILDYFHALCERYKISYSLGGGTLIGAIRHKGFIPWDDDIDVYMHRDEYQRFVDVWFQETHEHYNMETAEDILAQYTGEMAKIFDCRTQITDAKGRKSPMFMDIFIYDGVPNEPKIIYPLMKKHRRIKLRFSSCKKRWLRAKENTVQKAILNKLSHFLFSKMQKNLAQFQIKYPIKQCDYIGLVLSDYGGWQKSYMPKEYFNHVIYKEFEGRQFQVMNGYHEHLTQYYGDYMKLPPEEDQKPHHIQEAYILLEHHHHHH,not soluble
19,MSILVIGANGGVGSKLVSQLNEEHVDFTAGVRKEDQVKELENKGIKATLIDVEKNSINDLKNIFTDYDKVIFSVGSGGSTGADKTIIVDLDGAVKTIKASKEAGIKHYVMVSTYDSRREAFDASGDLKPYTIAKHYADDYLRTSDLNYTIVHPGSLTDDAGTGKIEADLYFDKAGSIPREDVATVLKEVVTSDGFNNQEFQILSGNHGVKDALKNYESLEHHHHHH,soluble
20,AGSNGAQEKKYIVGFKQTMSTMSAAKKKDVISEKGGKVQKQFKYVDAASATLNEKAVKELKKDPSVAYVEEDHVAHAY,soluble
21,MRPLKVALVNIPLRVPGSDAWISVPPQGYGGIQWVVANLMDGLLELGHEVFLLGAPGSPAGRPGLTVVPAGEPEEIERWLRTADVDVVHDHSGGVIGPAGLPPGTAFISSHHFTTRPVNPVGCTYSSRAQRAHCGGGDDAPVIPIPVDPARYRSAADQVAKEDFLLFMGRVSPHKGALEAAAFAHACGRRLVLAGPAWEPEYFDEITRRYGSTVEPIGEVGGERRLDLLASAHAVLAMSQAVTGPWGGIWCEPGATVVSEAAVSGTPVVGTGNGCLAEIVPSVGEVVGYGTDFAPDEARRTLAGLPASDEVRRAAVRLWGHVTIAERYVEQYRRLLAGATWK,soluble
22,MGSDKIHHHHHHMINVLILGAASQISRFLIPDLLADKTVYLTLFARQAPQRLGQYAGESRVTLVDGDWNQEADIEQVMSNQDIVFLASSSLVGNQNVVTVMKHTGVQRLIVAGGLGIDDEVAGKFGNWNTRMMGDYTPYKQAAKVILDSGLNTTYLRMTWLYDENGNEKYQIVPEGQPLRGTQVTRQAVAKLVTAIVRQPSLYQYANIGVVEPGTEWDKPSFY,not soluble
